Measured values from the DeepSol protein solubility set.

experiment: soluble on expression in E. coli; label from the status in PepcDB or PDB records

Row | Sequence | soluble on expression in E. coli
1 | MGSDKIHHHHHHMKLGLLTAPFAETPLADVAAWASSAGFEALEIACWPKTSGATRRYAGTSHIDAASTSPAQAKEITASLAEKHLTISGLGYYPNPLHPDAAHREAVIGHLKKVIELAANMGVPVVNTFCGGDASKTVDVNWQDALKVWPEIVAFARGHGIKLAFENCPMIFSYDEWPGGHNIAYSPQVWRRILETWGGDIGMNFDPSHLVWQMIDQARFIREFGPYMLHVHAKDLMIDHDGLYERGILSAGIGWQVPRMPGLGDVDWSGFFSGLYRAGYDGSVIIEHEDRRFEGSDEQVKRGFLLARDVLRPYVK | not soluble
2 | MEKKVEAILEFDKIKKQLAEFASSSLGEQAIYELAPATDFQVVQKAQLETEEGAKIIRLRGSAPITGLTDVFAHLKRLEIGGDLNGLEIYQIGSNLRVSRQMKNFMNDLLEIGVEIPLLGALSDELLVLKDVEEDIAISIDESGKILDTASEALSSIRRTLRRTEDRVREKLESYLRDRNASKMLSDAVITIRNDRYVIPVKQEYKGHYGGIVHDQSASGQTLFIEPQSVVDLNNERKALQAKEKQEIERILAEISASLAGWINEIHHNTFILGRFDFILAKARFGKALKAVTPHLSDTGIVHLIAARHPLLDAEKVVANDIYLGEDFSTIVITGPNTGGKTITLKTLGLLTLMAQSGLQIPAQEDSTIAVFENVFADIGDEQSIEQSLSTFSSHMTNIVSILEKVNHKSLILYDELGAGTDPQEGAALAIAILDASHKKGASVVATTHYPELKAYGYNRAHATNASVEFNVETLSPTYKLLIGVPGRSNAFDISRRLGLSESIITEARSLVDTESADLNDMISSLEEKRNLAEREYEEARELARGADALLKDLQKEITNYYQQKDKLLEQANEKAAGIVEKAETEAEEIIHELRTMQLNGAAGIKEHELIDAKTRLGKAKPKTINKAIPKAPKQKPHVFQAGDNVRVLSLGQKGTLLNKISDKEWNVQIGIIKMKIKTTDLEYIEPEKPKKQRIITSVHSSDSPAKSELDLRGERYEDAIQKVDKYLDEALLAGYPQVAIIHGKGTGALRTGVTEYLKNHRMVKSIRFGAAAEGGNGVTIVEFKLEHHHHHH | not soluble
3 | ARVNAQTGAPDILTSLDEKSVSYDTVMDKYWLSQYVIARETYDWYTLQKDYETVGMLSSPSEGQSYASQFQGDKALDKQYGSNVRTSVTIVSIVPNGKGIGTVRFAKTTKRTNETGDGETTHWIATIGYQYVNPSLMSESARLTNPLGFNVTSYRVDPEMGVVQ | soluble
4 | MAHHHHHHMVLLSVKGTTFPDEFVYECTAATAIYPDLARNLCHIQNSRHLVKLILLSARELLDEARCKKRVEVVDEGPGDGGANSYSALLTEYGAIIESTSARLKDRVVPVSLEEFDQYADRLRELTERLYPEECCVPEGGRSAAVDRLYQLHDDPNLDEDRRLAVYHCRAILDPQWKSHEQQKEDKAGLWFCGKLMEDTIARYSGKNEKSRLTVKVHPKDSVPPSTEPRISYDDQRALYERMRTRREEYKGLEESELRDRVVAQARGKVALTAPAAASPAMSMDLSRLRPICPKREEHEVN | not soluble
5 | MAKLDFHIVKRIREQIANGGTRVALKHKVAGAWQGITWEQFGQQVDTLSLALLAQGLGVQDKIGIFSNNMPQWTIADFAALQLRGVTVPIYPTNTAAQSAYIIDNADVKVLFVGEQPQFDAAVSIFEQCEQLELIVAMSDDIELGDHDFAISWKDFVAKGDTSHQAELDERLEQAKVDDLLTLIYTSGTTGQPKGVMLDYGNIAAQLEGHDQRLSLSQDDVSLCFLPLSHVFERAWTFYVLYKGATNCYLQDTMQVRDALSEVRPTVMCAVPRFYEKIFSAIHEKVSRAPIHRKIMFTWAVNMGAKMALCHQEKRKPSMMLRKAHA | not soluble
6 | MSDVTVVNCPTCGKPVVWGEISPFRPFCSKRCQLIDLGEWAAEEKRIASSGDQSDSDDWSEER | not soluble
7 | MNYAIQSETRHYPYLEVSARKRALKHSLIRVEQGLLLFRLGKHEYAVEKGQTLWIPFDCLCGLTFFPDTHITRVDFSLRLNVRLPHNAGFIKSSELALAVLHRLQNCERHHPTFTHLTQLLMLELTTCDPKLKMSPLTQAITEWQPQAHASVSKEQHVVLLVREALKRSQSGAQTHSIIEELFSGNAEHYHQLCTLVLGRTL | not soluble
8 | MLITISVARSENYYCVQVASSEKLEDLIPLFEKFKNMDNVRIEKIGGFYTLRIGFYLNKSDVLKILPEIKEKYRDAFVRVCEYDLSRVVFPKPEKVITLEQQEIEESKTTKENFLMLLEKNIEELKKLTEIIARGNTTKVKPFEKLESTVVEMYKQKEKSYKRAFPLYINGEFRYRGKALTGENLLGDKWYSYLGLKLSFFRRGFADFKYEKERAKFAKLFSEFDIQKEYTYLLAFQSQEEVFLKGLKYELGVVESEKNKTLSLLKDWVKFTESYDKSLGFPYRELIKKEELEGIESVSNGFFLKPMKINVEEFMKYYEKRKKDVEEYLKKFEIKTTDKWFYLRHTDLDVFARYYFAGKDGNTRDFWALGLRFELPIPYIITDLGKVDKLEILSFKERARLSYATTYSFLFDYISRINRNYSNIVNHLEQINVNFLEIEREIYFWKNGLREANYTLILRNLLDTYHRLEQLIYLKYINYVYIQKLIYFMDIKEEEIIRRILDG | not soluble
9 | MGSDKIHHHHHHMATLGANASLYSEQHRITYYECDRTGRATLTTLIDIAVLASEDQSDALGLTTEMVQSHGVGWVVTQYAIDITRMPRQDEVVTIAVRGSAYNPYFAYREFWIRDADGQQLAYITSIWVMMSQTTRRIVKILPELVAPYQSEVVKRIPRLPRPISFEATDTTITKPYHVRFFDIDPNRHVNNAHYFDWLVDTLPATFLLQHDLVHVDVRYENEVKYGQTVTAHANILPSEVADQVTTSHLIEVDDYYCCEVTIQWRTLPEPIQ | not soluble
10 | MGSDKIHHHHHHMLTCDVFFASKNKKGEEVCGDSIKVKRESEKIVVSVSDGLGSGIKASILSTLTATIASTMLMNGLPVTDVFRTILATLPICRVRKISYSNLCSVVCDFKNNTCTVVEYEFPVVMLFKGERRVFPEKQGLEIEGKKVFVWQFRSEAGTLLLLATDGLSQAGMGTDLFPLGFGVENIEKEMKHLLKNHVSPENIVRHFVKLAEKLDQEVRGDDTLVACLNFREKRILNLFVGPPEDRKKDEEYVRTFLSLPGKKIVCGGTTGQIFERVTGKKVEIDLYTLSENSPPVGYMEGIDLMTEGIVTLTQVFRYLEGQSEELGYGAKFIVKSLLEADEINFFVGRAINPAHQNPLFSHDISLKFRLVKDIAQILREKGKIVNVQYC | not soluble
11 | MKLTIIRLEKFSDQDRIDLQKIWPEYSPSSLQVDDNHRIYAARFNERLLAAVRVTLSGTEGALDSLRVREVTRRRGVGQYLLEEVLRNNPGVSCWWMADAGVEDRGVMTAFMQALGFTTQQGGWEKCG | soluble
12 | MDWRWWKIAYEELTEKQQRFVDKYITTFNATESAKQAGYSEKSAYSQGQRLLKNVEIQKAMKERFLEAKDTKGDRIQDVAETLEQDTSIARGEIQISEFKETDMLTGQVVIHTKREYTPSHEEQGRARDRIYKVNGAYSEKRELEHSGTVVFANEDNIPD | not soluble
13 | MSSNNRKKLLLMGRSGSGKSSMRSIIFSNYSAFDTRRLGATIDVEHSHLRFLGNMTLNLWDCGGQDVFMENYFTKQKDHIFQMVQVLIHVFDVESTEVLKDIEIFAKALKQLRKYSPDAKIFVLLHKMDLVQLDKREELFQIMMKNLSETSSEFGFPNLIGFPTSIWDESLYKAWSQIVCSLIPNMSNHQSNLKKFKEIMNALEIILFERTTFLVICSSNGENSNENHDSSDNNNVLLDPKRFEKISNIMKNFKQSCTKLKSGFKTLILNNNIYVSELSSNMVCFIVLKDMNIPQELVLENIKKAKEFFQ | soluble
14 | KIWLFFIEQANNEIRIDLRSNGINVRDIAIKYGGGGHNNASGAIITNKKQISDVVSD | soluble
15 | MTELKNDRYLRALLRQPVDVTPVWMMRRAGRYLPEYKATRAQAGDFMSLCKNAELACEVTLQPLRRYPLDAAILFSDILTIPDAMGLGLYFEAGEGPRFTAPVTCKADVEKLPIPDPEGELGYVMNAVRTIRRELKGEVPLIGFSGSPWTLATYMVEGGSSKAFTVIKKMMYADPQALHLLLDKLAKSVTLYLNAQIKAGAQSVMIFDTWGGVLTGRDYQQFSLYYMHKIVDGLLRENDGRRVPVTLFTKGGGQWLEAMAETGCDALGLDWTTDIADARRRVGHKVALQGNMDPSMLYAPPARIEDEVATILAGFGQGEGHVFNLGHGIHQDVPPEHAGAFVEAVHRLSAQYHN | not soluble
16 | GSDQVQKVDQYLYHMRLSDETLLEISKRFRKEMEKGLGATTHPTAAVKMLPTFVRSTPDGTEHGEFLALDLGGTNFRVLWVKVTDNGLQKVEMENQIYAIPEDIMRGSGTQLFDHIAECLANFMDKLQIKDKKLPLGFTFSFPCHQTKLDESFLVSWTKGFKSSGVEGRDVVALIRKAIQRRGDFDIDIVAVVNDTVGTMMTCGYDDHNCEIGLIVGTGSNACYMEEMRHIDMVEGDEGRMCINMEWGAFGDDGSLNDIRTEFDQEIDMGSLNPGKQLFEKMISGMYMGELVRLILVKMAKEELLFGGKLSPELLNTGRFETKDISDIEGEKDGIRKAREVLMRLGLDPTQEDCVATHRICQIVSTRSASLCAATLAAVLQRIKENKGEERLRSTIGVDGSVYKKHPHFAKRLHKTVRRLVPGCDVRFLRSEDGSGKGAAMVTAVAYRLADQHRARQKTLEHLQLSHDQLLEVKRRMKVEMERGLSKETHASAPVKMLPTYVCATPDGTEKGDFLALDLGGTNFRVLLVRVRNGKWGGVEMHNKIYAIPQEVMHGTGDELFDHIVQCIADFLEYMGMKGVSLPLGFTFSFPCQQNSLDESILLKWTKGFKASGCEGEDVVTLLKEAIHRREEFDLDVVAVVNDTVGTMMTCGFEDPHCEVGLIVGTGSNACYMEEMRNVELVEGEEGRMCVNMEWGAFGDNGCLDDFRTEFDVAVDELSLNPGKQRFEKMISGMYLGEIVRNILIDFTKRGLLFRGRISERLKTRGIFETKFLSQIESDCLALLQVRAILQHLGLESTCDDSIIVKEVCTVVARRAAQLCGAGMAAVVDRIRENRGLDALKVTVGVDGTLYKLHPHFAKVMHETVKDLAPKCDVSFLQSEDGSGKGAALITAVACRIREAGQ | soluble
17 | MSDSGRADALLAQLPREGRGRLKVFLGAAPGVGKTYAMLQAAHAQLRQGVRVMAGVVETHGRAETEALLNGLPQQPLLRTEYRGMTLEEMDLDALLKAAPSLVLVDELAHTNAPGSRHTKRWQDIQELLAAGIDVYTTVNVQHLESLNDQVRGITGVQVRETLPDWVLQEAFDLVLIDLPPRELLERLRDGKVYVPEQARAAIDAFFTQTNLTALREMAMQTAAAQV | not soluble
18 | MVEDPYIWMENLQDNRVREIIERENKKFREFIGELSDKLFPEVWEYFSIPTVTMAKITKRGIIVSYNEKDRSIIRWLDGDVIVDSKEIEREVGDEVLLQGFTADDEGEKLAYSFSIGGADEGITRIIDLKSGEVIEEIKPSIWNILFLKDGYYFARFYRKEKTPDGVDPPAERVFWKDKEGEKMVFGEGLTSGYFMTLRKSSDDKFAMLTLNYGWNQGEIYVGPIDKPQEWRKVYSATVPVEPVDIVNGKLYILTREGRGMGKVIAVKDGEIEEVIPEGEFPLEWAVIVDDKIVAGRLVHASHRLEVYTLKGEKIEEVTFDIPGALHPLDKNNKEVLLRYISFTIPYRLYEFKDKLRIIEERKVEGKFKVEEDFVVSKDGTRIHYFIIKGEKDEKKAWVFGYGGFNIALTPRFFPQVIPFLKRGGTFVMANLRGGSEYGEEWHRAGMRENKQNVFDDFIAVLEKLKKEGYKVAAWGRSNGGLLVSATLTQRPDIMDAALIGYPVIDMLRFHKLYIGSVWIPEYGNPDDPKDREFLLKYSPYHNVDPNKKYPLTLIYTGLHDDRVHPAHALKFFMKLKEVGAPVYLRVETKSGHMGASPETRARELTDLLAFVLKSLS | soluble
19 | QIQLVQSGPELKKPGETVKISCKASGYTFTDYSMYWVKQAPGKGLKRMGWINTETGEPTYADDFKGRFALSLDTSASTAYLHISNLKNEDTATYFCARGLDSWGQGTSVTVSSAKTTPPSVYPLAPGCGDTTGSSVTLGCLVKGYFPESVTVTWNSGSLSSSVHTFPALLQSGLYTMSSSVTVPSSTWPSQTVTCSVAHPASSTTVDKKLEPS | soluble
